Our source for the stoichiometry N values is PMC4771870.

The assay has as its target mMBP-fused VERL-Fb (fragment of vitelline envelope receptor for lysin). Description: crystal structure; crystals of the mMBP-VERL-Fb fusion, space group P2(1), 2.9 Å, molecular replacement with MBP; refinement ongoing.

mMBP-fused VERL-Fb (fragment of vitelline envelope receptor for lysin), sequence (Q8WR62 25-3722): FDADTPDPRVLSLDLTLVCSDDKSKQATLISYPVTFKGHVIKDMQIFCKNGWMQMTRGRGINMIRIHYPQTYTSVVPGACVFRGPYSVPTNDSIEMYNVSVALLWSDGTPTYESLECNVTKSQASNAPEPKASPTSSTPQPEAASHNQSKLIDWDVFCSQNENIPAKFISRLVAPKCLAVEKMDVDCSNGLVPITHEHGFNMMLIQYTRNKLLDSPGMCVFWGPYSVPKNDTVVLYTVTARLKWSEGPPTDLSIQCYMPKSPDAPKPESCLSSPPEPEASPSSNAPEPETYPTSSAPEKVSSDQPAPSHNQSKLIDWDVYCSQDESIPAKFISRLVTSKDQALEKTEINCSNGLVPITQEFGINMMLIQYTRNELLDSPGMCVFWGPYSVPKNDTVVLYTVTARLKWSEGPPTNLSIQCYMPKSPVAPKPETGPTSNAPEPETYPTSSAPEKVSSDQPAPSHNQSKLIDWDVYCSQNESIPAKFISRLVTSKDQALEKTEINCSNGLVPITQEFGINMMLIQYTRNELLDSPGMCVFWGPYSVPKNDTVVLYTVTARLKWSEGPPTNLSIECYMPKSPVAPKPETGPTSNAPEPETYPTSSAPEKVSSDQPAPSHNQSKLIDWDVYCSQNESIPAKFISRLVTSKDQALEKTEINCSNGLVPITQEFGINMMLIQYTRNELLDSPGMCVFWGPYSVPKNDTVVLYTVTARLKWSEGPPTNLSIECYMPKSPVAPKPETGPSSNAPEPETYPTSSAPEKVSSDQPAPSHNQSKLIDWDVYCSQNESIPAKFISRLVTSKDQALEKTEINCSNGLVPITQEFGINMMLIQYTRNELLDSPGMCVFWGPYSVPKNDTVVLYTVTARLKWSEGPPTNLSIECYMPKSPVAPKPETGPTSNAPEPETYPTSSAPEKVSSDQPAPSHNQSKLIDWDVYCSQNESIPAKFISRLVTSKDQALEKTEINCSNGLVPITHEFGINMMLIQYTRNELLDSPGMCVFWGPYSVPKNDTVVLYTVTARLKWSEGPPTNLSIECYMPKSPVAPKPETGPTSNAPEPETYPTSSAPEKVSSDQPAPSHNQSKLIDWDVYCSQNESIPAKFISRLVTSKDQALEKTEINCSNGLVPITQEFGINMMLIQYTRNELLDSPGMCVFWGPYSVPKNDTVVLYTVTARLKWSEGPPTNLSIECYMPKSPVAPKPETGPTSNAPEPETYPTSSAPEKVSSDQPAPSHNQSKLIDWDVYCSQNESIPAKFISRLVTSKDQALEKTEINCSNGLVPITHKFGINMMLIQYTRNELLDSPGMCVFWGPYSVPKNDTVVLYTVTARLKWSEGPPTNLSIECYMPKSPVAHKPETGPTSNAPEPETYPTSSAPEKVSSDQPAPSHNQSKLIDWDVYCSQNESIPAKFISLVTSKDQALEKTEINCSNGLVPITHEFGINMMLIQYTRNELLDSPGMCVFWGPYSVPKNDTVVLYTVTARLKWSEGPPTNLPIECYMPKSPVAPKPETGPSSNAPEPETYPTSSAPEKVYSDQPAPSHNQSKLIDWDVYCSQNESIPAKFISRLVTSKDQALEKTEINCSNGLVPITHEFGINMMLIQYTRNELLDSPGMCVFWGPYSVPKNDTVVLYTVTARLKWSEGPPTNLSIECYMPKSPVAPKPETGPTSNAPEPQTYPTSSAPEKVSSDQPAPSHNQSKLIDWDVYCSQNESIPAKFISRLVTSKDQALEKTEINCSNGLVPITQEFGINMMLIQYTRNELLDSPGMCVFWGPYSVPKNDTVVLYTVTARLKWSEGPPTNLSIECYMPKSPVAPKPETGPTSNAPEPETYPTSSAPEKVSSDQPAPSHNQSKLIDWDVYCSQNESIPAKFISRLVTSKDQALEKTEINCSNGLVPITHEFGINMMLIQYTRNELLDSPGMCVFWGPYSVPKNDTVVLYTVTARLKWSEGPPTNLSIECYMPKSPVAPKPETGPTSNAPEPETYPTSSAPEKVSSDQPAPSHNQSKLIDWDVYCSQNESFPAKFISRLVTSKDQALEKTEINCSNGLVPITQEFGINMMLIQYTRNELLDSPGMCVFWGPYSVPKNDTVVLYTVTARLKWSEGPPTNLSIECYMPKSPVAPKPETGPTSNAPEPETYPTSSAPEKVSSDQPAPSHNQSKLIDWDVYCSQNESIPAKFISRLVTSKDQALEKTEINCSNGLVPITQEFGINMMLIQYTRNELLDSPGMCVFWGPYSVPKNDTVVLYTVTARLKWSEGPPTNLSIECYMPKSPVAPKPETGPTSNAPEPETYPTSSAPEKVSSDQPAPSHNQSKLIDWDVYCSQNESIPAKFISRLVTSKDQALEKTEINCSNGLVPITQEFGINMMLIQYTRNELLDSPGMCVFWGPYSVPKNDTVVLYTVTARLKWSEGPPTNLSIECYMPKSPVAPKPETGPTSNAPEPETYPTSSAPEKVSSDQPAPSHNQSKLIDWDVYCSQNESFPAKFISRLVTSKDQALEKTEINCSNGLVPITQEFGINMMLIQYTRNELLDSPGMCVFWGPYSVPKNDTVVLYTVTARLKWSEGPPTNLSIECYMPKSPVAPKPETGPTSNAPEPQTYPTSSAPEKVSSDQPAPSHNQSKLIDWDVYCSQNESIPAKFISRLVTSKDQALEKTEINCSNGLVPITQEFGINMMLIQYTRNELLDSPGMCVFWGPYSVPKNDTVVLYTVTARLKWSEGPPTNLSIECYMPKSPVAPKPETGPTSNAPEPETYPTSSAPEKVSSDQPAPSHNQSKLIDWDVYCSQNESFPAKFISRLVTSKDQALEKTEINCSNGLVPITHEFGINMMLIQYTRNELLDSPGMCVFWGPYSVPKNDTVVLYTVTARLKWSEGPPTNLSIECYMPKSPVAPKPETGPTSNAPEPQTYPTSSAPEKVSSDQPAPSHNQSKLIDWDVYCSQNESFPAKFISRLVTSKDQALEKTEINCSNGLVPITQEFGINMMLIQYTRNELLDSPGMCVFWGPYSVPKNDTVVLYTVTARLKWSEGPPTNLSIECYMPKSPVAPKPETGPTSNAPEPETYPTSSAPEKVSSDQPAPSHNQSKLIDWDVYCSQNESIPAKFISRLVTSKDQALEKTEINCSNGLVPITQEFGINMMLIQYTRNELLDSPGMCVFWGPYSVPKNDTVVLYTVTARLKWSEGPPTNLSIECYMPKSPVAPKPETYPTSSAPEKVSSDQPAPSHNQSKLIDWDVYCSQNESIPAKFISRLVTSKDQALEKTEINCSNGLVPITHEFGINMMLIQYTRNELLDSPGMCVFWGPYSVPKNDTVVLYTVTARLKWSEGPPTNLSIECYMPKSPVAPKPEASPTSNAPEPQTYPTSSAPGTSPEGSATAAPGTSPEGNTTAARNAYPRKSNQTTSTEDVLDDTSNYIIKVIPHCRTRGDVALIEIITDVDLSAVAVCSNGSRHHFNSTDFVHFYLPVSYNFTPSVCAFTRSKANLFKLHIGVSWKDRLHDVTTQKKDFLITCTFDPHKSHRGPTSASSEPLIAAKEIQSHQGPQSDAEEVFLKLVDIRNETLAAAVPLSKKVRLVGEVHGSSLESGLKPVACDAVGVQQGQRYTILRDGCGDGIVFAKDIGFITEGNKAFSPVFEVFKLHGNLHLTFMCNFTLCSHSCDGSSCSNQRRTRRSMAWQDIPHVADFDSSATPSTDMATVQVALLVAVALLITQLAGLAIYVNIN

Regarding “mMBP-fused VERL-Fb (fragment of vitelline envelope receptor for lysin) (domain or fragment)”, the stoichiometry N worked out at 2.
